Molecular target: human MADr3 (human)
Test: cell-based or functional assay

- signal to noise ratio of 33P phosphorylation at 0.01 units of TGF-β receptor, MADr3 coated at 750 ng/well: 50
- signal to noise ratio of 33P phosphorylation on MADr3-coated FlashPlate: > 10
Substance: TGF-β receptor

From patent publication US20020025558A1
